Here are results for 27 molecules from publication PMC10786891, “Massively parallel profiling of RNA-targeting CRISPR-Cas13d”.

T1: EsCas13d, nuclease-dead (Eubacterium siraeum, UniProt B0MS50, R295A;H300A;R849A;H854A)
T1 sequence: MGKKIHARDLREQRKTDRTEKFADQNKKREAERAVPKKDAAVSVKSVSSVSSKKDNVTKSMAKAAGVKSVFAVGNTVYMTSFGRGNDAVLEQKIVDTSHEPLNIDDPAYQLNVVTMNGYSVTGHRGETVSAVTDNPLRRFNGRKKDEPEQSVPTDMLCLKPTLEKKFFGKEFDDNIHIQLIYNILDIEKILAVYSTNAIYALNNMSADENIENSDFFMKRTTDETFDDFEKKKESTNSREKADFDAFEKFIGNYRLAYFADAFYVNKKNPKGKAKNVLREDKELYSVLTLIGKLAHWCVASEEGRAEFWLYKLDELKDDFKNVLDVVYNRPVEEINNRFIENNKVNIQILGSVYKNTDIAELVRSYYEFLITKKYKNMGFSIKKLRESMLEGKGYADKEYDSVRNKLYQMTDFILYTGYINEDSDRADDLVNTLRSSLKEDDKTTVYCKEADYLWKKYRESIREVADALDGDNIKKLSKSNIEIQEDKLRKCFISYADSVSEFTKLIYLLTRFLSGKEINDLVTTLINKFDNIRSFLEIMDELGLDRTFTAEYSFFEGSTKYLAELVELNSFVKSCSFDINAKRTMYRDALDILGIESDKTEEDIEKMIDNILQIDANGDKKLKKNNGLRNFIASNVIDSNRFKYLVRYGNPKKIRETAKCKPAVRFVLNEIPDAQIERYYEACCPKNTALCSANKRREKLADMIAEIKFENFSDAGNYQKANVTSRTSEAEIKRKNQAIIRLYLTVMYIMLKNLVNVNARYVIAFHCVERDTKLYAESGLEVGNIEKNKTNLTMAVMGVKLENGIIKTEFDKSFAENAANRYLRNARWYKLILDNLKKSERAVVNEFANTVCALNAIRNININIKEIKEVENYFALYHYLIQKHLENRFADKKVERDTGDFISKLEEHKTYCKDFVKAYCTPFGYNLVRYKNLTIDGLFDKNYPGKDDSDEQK

B1: target 1 insA 3' of 15,insC 3' of 5 (mixed)
RNA 1: CACCCGUGCAAAAAUGCAGGGGUCUAAAACUGAGCGGAUAACCUCUCUAUGG
RNA 2: GGGAAUGGAUCCACAUCUACGAAUUCGUACCAUAGAGAAGGUUAUCCGCCUCACCGAGAUCGGAAGAGCACACGU
B2: target 1 C2U,G15U (mixed)
RNA 1: CACCCGUGCAAAAAUGCAGGGGUCUAAAACUGAGCGGAUAACCUCUCUAUGG
RNA 2: GGGAAUGGAUCCACAUCUACGAAUUCGUACCAUAGAUAGGUUAUCCGCUUACCGAGAUCGGAAGAGCACACGU
B3: target 1 insC 3' of 14,insU 3' of 14 (mixed)
RNA 1: CACCCGUGCAAAAAUGCAGGGGUCUAAAACUGAGCGGAUAACCUCUCUAUGG
RNA 2: GGGAAUGGAUCCACAUCUACGAAUUCGUACCAUAGAGACUGGUUAUCCGCUCACCGAGAUCGGAAGAGCACACGU
B4: target 3 insG 3' of 6,insU 3' of 1 (mixed)
RNA 1: CACCCGUGCAAAAUUGCAGGGGUCUAAAACGACCUGAAUAUUUCAGAUCAAA
RNA 2: GGGAAUGGAUCCACAUCUACGAAUUCGUUUUUGAUCUGAAAUAUUCGAGGUCUUGCAGAUCGGAAGAGCACACGU
B5: target 3 A18G,U22G (mixed)
RNA 1: CACCCGUGCAAAAUUGCAGGGGUCUAAAACGACCUGAAUAUUUCAGAUCAAA
RNA 2: GGGAAUGGAUCCACAUCUACGAAUUCGUUGUUGGUCUGAAAUAUUCAGGUCUGCAGAUCGGAAGAGCACACGU
B6: target 3 insC 3' of 11,insA 3' of 10 (mixed)
RNA 1: CACCCGUGCAAAAUUGCAGGGGUCUAAAACGACCUGAAUAUUUCAGAUCAAA
RNA 2: GGGAAUGGAUCCACAUCUACGAAUUCGUUUUUGAUCUGAAACUAAUUCAGGUCUGCAGAUCGGAAGAGCACACGU
B7: target 3 insA 3' of 8,insA 3' of 8 (mixed)
RNA 1: CACCCGUGCAAAAUUGCAGGGGUCUAAAACGACCUGAAUAUUUCAGAUCAAA
RNA 2: GGGAAUGGAUCCACAUCUACGAAUUCGUUUUUGAUCUGAAAUAUAAUCAGGUCUGCAGAUCGGAAGAGCACACGU
B8: target 3 G4A,A11C (mixed)
RNA 1: CACCCGUGCAAAAUUGCAGGGGUCUAAAACGACCUGAAUAUUUCAGAUCAAA
RNA 2: GGGAAUGGAUCCACAUCUACGAAUUCGUUUUUGAUCUGAACUAUUCAAGUCUGCAGAUCGGAAGAGCACACGU
B9: target 3 A11C,G14A (mixed)
RNA 1: CACCCGUGCAAAAUUGCAGGGGUCUAAAACGACCUGAAUAUUUCAGAUCAAA
RNA 2: GGGAAUGGAUCCACAUCUACGAAUUCGUUUUUGAUCUAAACUAUUCAGGUCUGCAGAUCGGAAGAGCACACGU
B10: target 3 insG 3' of 8,insA 3' of 2 (mixed)
RNA 1: CACCCGUGCAAAAUUGCAGGGGUCUAAAACGACCUGAAUAUUUCAGAUCAAA
RNA 2: GGGAAUGGAUCCACAUCUACGAAUUCGUUUUUGAUCUGAAAUAUGUCAGGUACUGCAGAUCGGAAGAGCACACGU
B11: target 3 insA 3' of 7,insA 3' of 4 (mixed)
RNA 1: CACCCGUGCAAAAUUGCAGGGGUCUAAAACGACCUGAAUAUUUCAGAUCAAA
RNA 2: GGGAAUGGAUCCACAUCUACGAAUUCGUUUUUGAUCUGAAAUAUUACAGAGUCUGCAGAUCGGAAGAGCACACGU
B12: target 3 U2C,A5C (mixed)
RNA 1: CACCCGUGCAAAAUUGCAGGGGUCUAAAACGACCUGAAUAUUUCAGAUCAAA
RNA 2: GGGAAUGGAUCCACAUCUACGAAUUCGUUUUUGAUCUGAAAUAUUCCGGCCUGCAGAUCGGAAGAGCACACGU
B13: target 3 insU 3' of 6,insA 3' of 2 (mixed)
RNA 1: CACCCGUGCAAAAUUGCAGGGGUCUAAAACGACCUGAAUAUUUCAGAUCAAA
RNA 2: GGGAAUGGAUCCACAUCUACGAAUUCGUUUUUGAUCUGAAAUAUUCUAGGUACUGCAGAUCGGAAGAGCACACGU
B14: target 3 insG 3' of 6,insU 3' of 5 (mixed)
RNA 1: CACCCGUGCAAAAUUGCAGGGGUCUAAAACGACCUGAAUAUUUCAGAUCAAA
RNA 2: GGGAAUGGAUCCACAUCUACGAAUUCGUUUUUGAUCUGAAAUAUUCGAUGGUCUGCAGAUCGGAAGAGCACACGU
B15: target 3 insC 3' of 7,insG 3' of 5 (mixed)
RNA 1: CACCCGUGCAAAAUUGCAGGGGUCUAAAACGACCUGAAUAUUUCAGAUCAAA
RNA 2: GGGAAUGGAUCCACAUCUACGAAUUCGUUUUUGAUCUGAAAUAUUCCAGGGUCUGCAGAUCGGAAGAGCACACGU
B16: target 3 insG 3' of 16,insU 3' of 1 (mixed)
RNA 1: CACCCGUGCAAAAUUGCAGGGGUCUAAAACGACCUGAAUAUUUCAGAUCAAA
RNA 2: GGGAAUGGAUCCACAUCUACGAAUUCGUUUUUGAUCGUGAAAUAUUCAGGUCUUGCAGAUCGGAAGAGCACACGU
B17: target 3 insC 3' of 9,insA 3' of 3 (mixed)
RNA 1: CACCCGUGCAAAAUUGCAGGGGUCUAAAACGACCUGAAUAUUUCAGAUCAAA
RNA 2: GGGAAUGGAUCCACAUCUACGAAUUCGUUUUUGAUCUGAAAUACUUCAGGAUCUGCAGAUCGGAAGAGCACACGU
B18: target 3 complement block 2-6 (mixed)
RNA 1: CACCCGUGCAAAAUUGCAGGGGUCUAAAACGACCUGAAUAUUUCAGAUCAAA
RNA 2: GGGAAUGGAUCCACAUCUACGAAUUCGUUUUUGAUCUGAAAUAUUGUCCACUGCAGAUCGGAAGAGCACACGU
B19: target 3 U2A,A5U (mixed)
RNA 1: CACCCGUGCAAAAUUGCAGGGGUCUAAAACGACCUGAAUAUUUCAGAUCAAA
RNA 2: GGGAAUGGAUCCACAUCUACGAAUUCGUUUUUGAUCUGAAAUAUUCUGGACUGCAGAUCGGAAGAGCACACGU
B20: target 3 insG 3' of 9,insG 3' of 6 (mixed)
RNA 1: CACCCGUGCAAAAUUGCAGGGGUCUAAAACGACCUGAAUAUUUCAGAUCAAA
RNA 2: GGGAAUGGAUCCACAUCUACGAAUUCGUUUUUGAUCUGAAAUAGUUCGAGGUCUGCAGAUCGGAAGAGCACACGU
B21: target 3 insU 3' of 6 (mixed)
RNA 1: CACCCGUGCAAAAUUGCAGGGGUCUAAAACGACCUGAAUAUUUCAGAUCAAA
RNA 2: GGGAAUGGAUCCACAUCUACGAAUUCGUUUUUGAUCUGAAAUAUUCUAGGUCUGCAGAUCGGAAGAGCACACGU
B22: target 3 A11G,U22A (mixed)
RNA 1: CACCCGUGCAAAAUUGCAGGGGUCUAAAACGACCUGAAUAUUUCAGAUCAAA
RNA 2: GGGAAUGGAUCCACAUCUACGAAUUCGUUAUUGAUCUGAAGUAUUCAGGUCUGCAGAUCGGAAGAGCACACGU
B23: target 3 G4C,U22A (mixed)
RNA 1: CACCCGUGCAAAAUUGCAGGGGUCUAAAACGACCUGAAUAUUUCAGAUCAAA
RNA 2: GGGAAUGGAUCCACAUCUACGAAUUCGUUAUUGAUCUGAAAUAUUCACGUCUGCAGAUCGGAAGAGCACACGU
B24: target 3 C6A,U8G (mixed)
RNA 1: CACCCGUGCAAAAUUGCAGGGGUCUAAAACGACCUGAAUAUUUCAGAUCAAA
RNA 2: GGGAAUGGAUCCACAUCUACGAAUUCGUUUUUGAUCUGAAAUAGUAAGGUCUGCAGAUCGGAAGAGCACACGU
B25: target 3 insG 3' of 8,insU 3' of 4 (mixed)
RNA 1: CACCCGUGCAAAAUUGCAGGGGUCUAAAACGACCUGAAUAUUUCAGAUCAAA
RNA 2: GGGAAUGGAUCCACAUCUACGAAUUCGUUUUUGAUCUGAAAUAUGUCAGUGUCUGCAGAUCGGAAGAGCACACGU
B26: target 3 insC 3' of 13,insU 3' of 5 (mixed)
RNA 1: CACCCGUGCAAAAUUGCAGGGGUCUAAAACGACCUGAAUAUUUCAGAUCAAA
RNA 2: GGGAAUGGAUCCACAUCUACGAAUUCGUUUUUGAUCUGACAAUAUUCAUGGUCUGCAGAUCGGAAGAGCACACGU
B27: target 3 insA 3' of 21,insA 3' of 4 (mixed)
RNA 1: CACCCGUGCAAAAUUGCAGGGGUCUAAAACGACCUGAAUAUUUCAGAUCAAA
RNA 2: GGGAAUGGAUCCACAUCUACGAAUUCGUUUUAUGAUCUGAAAUAUUCAGAGUCUGCAGAUCGGAAGAGCACACGU

The term Kd denotes the constant that tells how readily two partners part at equilibrium. Low values mean tighter binding, high ones weaker binding.

This data set concerns the target T1, EsCas13d, nuclease-dead. Description: crRNA (strand 1, pre-loaded); Mg2+; 40 mM Tris-HCl pH 7.5, 150 mM NaCl, 6 mM MgCl2, 1 mM DTT, 0.1% Tween-20, 0.2 mg/ml BSA; 25 C; 10 min per concentration, then washed. Conditions: tags: His6-TwinStrep-SUMO cleaved; N-terminal SNAP kept (SNAP-Surface 488); label: 3' end held by stalled T7 RNA polymerase.
Turning to B1, the affinity, expressed as Kd, was 16.7 ± 1.4 nM.

On to B2, for which the affinity, expressed as Kd, was 29 ± 4 nM.

Consider B3, for which the Kd was found to be 50 ± 12 nM.

As to B4, binding was put at a Kd of 56.5 ± 15 nM.

Take B5: the Kd was found to be 64 ± 10 nM.

B6 had a Kd of 46.5 ± 16.5 nM.

The molecule B7 came in with a Kd of 63 ± 8.5 nM.

Turning to B8, the Kd was found to be 48.5 ± 11.5 nM.

The molecule B9 came in with a Kd of 51 ± 10 nM.

Turning to B10, the Kd is 67.5 ± 17 nM.

Molecule B11 displayed a dissociation constant (Kd) of 66 ± 12 nM.

Turning to B12, binding was characterised by a dissociation constant (Kd) of 105 ± 18.5 nM.

On to B13, for which the affinity, expressed as Kd, was 47 ± 14 nM.

B14 showed a Kd of 7.59 ± 0.605 nM.

In turn, B15 showed a Kd of 58.5 ± 9.5 nM.

B16: the dissociation constant (Kd) was 74 ± 24 nM.

Turning to B17, the equilibrium dissociation constant (Kd) was 83.5 ± 14 nM.

Turning to B18, the Kd is 58.5 ± 9 nM. This Kd and that of the molecule before are within 1.5-fold of each other.

In the case of B19, the affinity, expressed as Kd, was 7.35 ± 1.15 nM.

In the case of B20, the equilibrium dissociation constant (Kd) is 71 ± 10 nM.

In the case of B21, the Kd came out at 17.3 ± 1.35 nM.

As for B22, the dissociation constant Kd is 67 ± 15 nM.

Molecule B23 showed an equilibrium dissociation constant (Kd) of 10.7 ± 1 nM.

Molecule B24 came in with a Kd of 65 ± 7.5 nM.

In turn, B25 displayed an equilibrium dissociation constant (Kd) of 21.2 ± 4.45 nM.

B26 returned a Kd of 100 ± 40 nM. Compared with the last molecule, the Kd is about 4.7-fold higher.

For the molecule B27, the Kd is about 81.5 nM.
